Results as given in US20220025008A1 (FAPON BIOTECH, published 2022).
Changes are numbered by the printed parent chain.

T1: Recombinant NT antigen (N-terminal pro-brain natriuretic peptide, NT-proBNP) (human, UniProt P16860 27-102)
T1 construct: domain: N-terminal pro-brain natriuretic peptide (NT-proBNP); also called recombinant NT protein; N-terminal pro-B-type natriuretic peptide
T1 sequence (looked up): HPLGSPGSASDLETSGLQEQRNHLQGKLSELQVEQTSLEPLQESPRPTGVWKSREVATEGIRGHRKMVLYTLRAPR

B1: Mutation 1-5 (antibody)
heavy: QVRLQESGPSQVKPAQTLSLTCAISGFSLTTYYVDWVRHTPGKPPEWLAQMTKDGNAVHNPTVRSRLSITRDTSKSQVFLKLTGVTTEDTAVYYCVRGVIDFGPGLLVTVSSASTTPPKVYPLTSCCGDTSSSIVTLGCLVSSYMPEPVTVTWNSGALTSGVHTFPAILQSSGLYSLSSVVTVPASTSGAQTFICNVAHPASSTKVDKRVEPGCPDPCKHCRCPPPELPGGPSVFIFPPKPKDTLTISGTPEVTCVVVDVGQDDPEVQFSWFVDNVEVRTARTKPREEQFNSTFRVVSALPIQHQDWTGGKEFKCKVHNEGLPAPIVRTISRTKGQAREPQVYVLAPPQEELSKSTLSVTCLVTGFYPDYIAVEWQKNGQPESEDKYGTTTSQLDADGSYFLYSRLRVDKNSWQEGDTYACVVMHEALHNHYTQKSISKPPGK
light: QAVLTQPSSVSRSLGQTVSITCSGSSDNVGFGDYINWFQLIPGSAPKTLIFGAYSRVRGVPDRFSGSRSGNTATLTINSLQAEDEADYYCGSGNSRNYVFGSGTRLTVLSQPKSAPSVTLFPPSKEELDTNKATVVCLISDFYPGSVNVVWKADGSTINQNVKTTQASKQSNSKYAASSYLTLTGSEWKSKSSYTCEVTHEGSTVTKTVKPSECS
B2: WT 1-8 (antibody, V domains shown)
VH: QVRLQESGPSQVKPAQTLSLTCAISGPSLTTYYVDWVRHTPGKPPEWLAQMTKDANAVHQPTVRSRLSITRDTSKSQVFLKLTGVTTEDTAVYYCVKGIIDWGPGLLVTVSS
V domain: QAVLTQPSSVSRSLGQTVSITCSGSSDNVGPGDYINWFQLIPGSAPKTLIFAAYSRVRGVPDRFSGSRSGNTATLTINSLQAEDEADYYCGSPNSRNYVWGSGTRLTVLS
B3: WT 1-9 (antibody, V domains shown)
VH: B2 VH with L29V, V34I, V63L, I99L
V domain: QAVLTQPSSVSRSLGQTVSITCSGSSDNVGPGDYVNWFQLIPGSAPKTLIFAAYSRLRGVPDRFSGSRSGNTATLTINSLQAEDEADYYCGSGNSRGGYVWGSGTRLTVLS
B4: Mutation 1-2 (antibody, V domains shown)
VH: B2 VH with P27F, L29I, A55G, V63L, K97R, I99L
VL: B3 V domain with N28Q, P31F, V35I, A52G, Y54T, L57V, G93A, W101F
B5: Mutation 1-6 (antibody, V domains shown)
VH: B2 VH with P27F, L29V, V34I, A55G, Q60N, K97R
VL: B2 V domain with P31F, A52G, Y54S, V57I, W100F
B6: Mutation 1-38 (antibody, V domains shown)
VH: B2 VH with P27F, L29I, A55G, V63L, K97R, I99L
VL: B3 V domain with N28Q, P31F, V35I, A52G, Y54T, L57V, W101F
B7: Mutation 1-52 (antibody, V domains shown)
VH: B2 VH with P27F, L29V, V34L, A55G, K97R, I99V
VL: B3 V domain with P31F, V35L, A52G, W101F
B8: WT 1-4 (antibody)
heavy: B1 heavy with F27P, L29V, G55A, N60Q, V63L, R97K
light: QAVLTQPSSVSRSLGQTVSITCSGSSDQVGPGDYVNWFQLIPGSAPKTLIFAATSRIRGVPDRFSGSRSGNTATLTINSLQAEDEADYYCGSGNSRGGYVWGSGTRLTVLSQPKSAPSVTLFPPSKEELDTNKATVVCLISDFYPGSVNVVWKADGSTINQNVKTTQASKQSNSKYAASSYLTLTGSEWKSKSSYTCEVTHEGSTVTKTVKPSECS
B9: WT 1-6 (antibody, V domains shown)
VH: B2 VH with L29I, V63I, I99L
V domain: B3 V domain with N28Q, V35L, Y54S, G93A
B10: WT 1-7 (antibody, V domains shown)
VH: B2 VH with L29V, V34L, I99V
V domain: B3 V domain with V35I
B11: Mutation 1-24 (antibody, V domains shown)
VH: B2 VH with P27F, L29V, V34I, A55G, V63I, K97R
VL: B3 V domain with N28Q, P31F, A52G, Y54S, L57I, G93P, W101F
B12: Mutation 1-33 (antibody)
heavy: B1 heavy with L29V, V34I, N60Q, V63L, V99L
light: B8 light with P31F, V35I, A52G, T54Y, G93A, W101F
B13: Mutation 1-26 (antibody, V domains shown)
VH: B2 VH with P27F, L29V, A55G, V63L, K97R, I99L
VL: B3 V domain with N28Q, P31F, A52G, Y54S, L57V, G93A, W101F
B14: Mutation 1-28 (antibody, V domains shown)
VH: B2 VH with P27F, L29I, V34L, A55G, K97R, I99V
VL: B3 V domain with P31F, V35L, A52G, Y54S, W101F
B15: Mutation 1-4 (antibody, V domains shown)
VH: B2 VH with P27F, V34L, A55G, K97R, I99V
VL: B3 V domain with P31F, V35L, A52G, W101F
B16: Mutation 1-21 (antibody)
heavy: B1 heavy with V34I, N60Q, V63L, V99L
light: B8 light with P31F, V35I, A52G, T54Y, G93A, W101F
B17: Mutation 1-12 (antibody, V domains shown)
VH: B2 VH with P27F, V34I, A55G, V63I, K97R
VL: B3 V domain with N28Q, P31F, A52G, L57I, G93P, W101F
B18: Mutation 1-14 (antibody, V domains shown)
VH: B2 VH with P27F, A55G, V63L, K97R, I99L
VL: B3 V domain with N28Q, P31F, V35I, A52G, L57V, G93A, W101F
B19: Mutation 1-16 (antibody, V domains shown)
VH: B2 VH with P27F, L29V, V34L, A55G, K97R, I99V
VL: B3 V domain with P31F, V35L, A52G, Y54T, W101F
B20: Mutation 1-42 (antibody, V domains shown)
VH: B2 VH with P27F, L29V, V34I, A55G, Q60N, K97R
VL: B3 V domain with P31F, V35I, A52G, Y54S, L57I, W101F

These binders were tested against T1, Recombinant NT antigen (N-terminal …) (assay: indirect ELISA, KD calculated from half-max OD at 4 coating concentrations).
Experimental: Recombinant NT antigen was diluted with coating solution to 1 μg/ml a microplate overnight at 4° C.; which was washed twice with washing solution and patted dry on the next day; with addition of blocking solution (20% BSA+80% PBS) at 120 μL per well at 37° C. for 1 h and patted dry; added the diluted NT monoclonal antibody, 100 μL/well at 37° C. for 30 min (partial supernatant for 1 h); washed 5 times with washing solution and patted dry; added rabbit anti-goat IgG-HRP […] per well at 37° C. for 30 min; washed 5 times with washing solution and patted dry; added color developing solution A (50 μL/well), added color developing solution B (50 μL/well) for 10 min; added stop solution, 50 μL/well; followed by reading the OD value at 450 nm (reference 630 nm) on the microplate reader.
Data from the enzyme immunoassay indirect method were analyzed in the same way as the activity identification, with four gradients of 3 μg/ml, 1.5 μg/ml, 0.75 μg/ml and 0.375 μg/ml for coating; the antibody was diluted from 1000 ng/ml by 2 times to 0.977 ng/ml for loading sample. OD values corresponding to different antibody concentrations at different coating concentrations were obtained. Under the same coating concentration, data were plotted logarithmically with the antibody concentration as the abscissa and the OD value as the ordinate.

Kd	Binder
6.1 nM	B1
4.78 nM	B2
2.47 nM	B3
2.61 nM	B4
1.17 nM	B5
1.82 nM	B6
2.71 nM	B7
3.02 nM	B8
6.14 nM	B9
5.05 nM	B10
1.17 nM	B11
2.6 nM	B12
1.51 nM	B13
2.25 nM	B14
2.07 nM	B15
2.53 nM	B16
2.75 nM	B17
0.875 nM	B18
3.27 nM	B19
2.22 nM	B20
